Response data for one variant are collected here from paper PMC3708844 (2013).

B1: SHI1 fused with the N-terminal portion of the luciferase [Arabidopsis thaliana] / FRY2/CPL1 fused with the C-terminal part of the luciferase [Arabidopsis thaliana] (parent complex)
chain 1: MERSRSKRNYHYDQDYDGDSMPRSKPRYNNNYHFGGGGGGNNRYRGGGGGGGGNGRPSKSHPETMATTTYRILCHDAKAGGVIGKSGTIIKSIRQHTGAWINVHELVPGDAERIIEISDNRRRDPDGRMPSFSPAQEALFSVHDRILESEAQFGYGGPPPEEEEDYGGVRPGGGRVVTRLVVSRMHVGCLLGKGGKIIEQMRIETKTHIRILPRESNLPRCVSLSEEIVQIVGELNAVKNALAIVSSRLRESQHRDRSNFQGRSHSPERSFAAAGDDYMPQLRRQSSDRFPRGNFRNNNFSSRQSNYAEEAPAVPVGENVYSEELVFQILCPADKIVRVVGESQGIIDLLQNEIGVDVRVSDPVAGSDEQIITISSEEAPDDPFFPAQEALLHIQTQIIDLIPDKDNLITTRLLVPSRDSICLEGKAGSVSEISRLTGTSVQILAREEIPRCASINDVVIQITGEIRAAREALVELTLLLRSHMFKELSQKETPPASTSTTGPLEGVAGVMEVASSNNTIQSREGPTSSNLNLQQVSTILPQFKEGFGSVAKAGESEHREEVPVTTSRMAVPLVTRSTLEVVLPEAVVPKLVTKSRNKLAQISEWSGASVTIVEDRPEETQNIIRISGTPEQAERAQSLLQGFILSIQEDGP
chain 2: MYSNNRVEVFHGDGRLGELEIYPSRELNQQQDDVMKQRKKKQREVMELAKMGIRISHFSQSGERCPPLAILTTISSCGLCFKLEASPSPAQESLSLFYSSCLRDNKTAVMLLGGEELHLVAMYSENIKNDRPCFWAFSVAPGIYDSCLVMLNLRCLGIVFDLDETLVVANTMRSFEDKIDGFQRRINNEMDPQRLAVIVAEMKRYQDDKNLLKQYIESDQVVENGEVIKVQSEIVPALSDNHQPLVRPLIRLQEKNIILTRINPMIRDTSVLVRMRPSWEELRSYLTAKGRKRFEVYVCTMAERDYALEMWRLLDPEGNLINTNDLLARIVCVKSGFKKSLFNVFLDGTCHPKMALVIDDRLKVWDEKDQPRVHVVPAFAPYYSPQAEAAATPVLCVARNVACGVRGGFFRDFDDSLLPRIAEISYENDAEDIPSPPDVSHYLVSEDDTSGLNGNKDPLSFDGMADTEVERRLKEAISASSAVLPAANIDPRIAAPVQFPMASASSVSVPVPVQVVQQAIQPSAMAFPSIPFQQPQQPTSIAKHLVPSEPSLQSSPAREEGEVPESELDPDTRRRLLILQHGQDTRDPAPSEPSFPQRPPVQAPPSHVQSRNGWFPVEEEMDPAQIRRAVSKEYPLDSEMIHMEKHRPRHPSFFSKIDNSTQSDRMLHENRRPPKESLRRDEQLRSNNNLPDSHPFYGEDASWNQSSSRNSDLDFLPERSVSATETSADVLHGIAIKCGAKVEYKPSLVSSTDLRFSVEAWLSNQKIGEGIGKSRREALHKAAEASIQNLADGYMRANGDPGPSHRDATPFTNENISMGNANALNNQPFARDETALPVSSRPTDPRLEGSMRHTGSITALRELCASEGLEMAFQSQRQLPSDMVHRDELHAQVEIDGRVVGEGVGSTWDEARMQAAERALSSVRSMLGQPLHKRQGSPRSFGGMSNKRLKPDFQRSLQRMPSSGRYS

In the assay the parent is B1. Briefly: split-luciferase complementation assay; co-expressed in Arabidopsis protoplasts; means ± SE (n = 3); parent: 160; read off a plot.
Regarding chain 1 E389K, the response is about 110 RLU.
